Target: β6 Δ746-764 deletion mutant expressed in SW480 cells (human) (UniProt P06756)
Experiment: β6 immunoprecipitation (R6G9) from SW480 transfectants, blot with E10 (FIG. 27B)

Chain of β6 Δ746-764 deletion mutant expressed in SW480 cells (human) (chain, as listed by the source mutant, chain 1 of 2): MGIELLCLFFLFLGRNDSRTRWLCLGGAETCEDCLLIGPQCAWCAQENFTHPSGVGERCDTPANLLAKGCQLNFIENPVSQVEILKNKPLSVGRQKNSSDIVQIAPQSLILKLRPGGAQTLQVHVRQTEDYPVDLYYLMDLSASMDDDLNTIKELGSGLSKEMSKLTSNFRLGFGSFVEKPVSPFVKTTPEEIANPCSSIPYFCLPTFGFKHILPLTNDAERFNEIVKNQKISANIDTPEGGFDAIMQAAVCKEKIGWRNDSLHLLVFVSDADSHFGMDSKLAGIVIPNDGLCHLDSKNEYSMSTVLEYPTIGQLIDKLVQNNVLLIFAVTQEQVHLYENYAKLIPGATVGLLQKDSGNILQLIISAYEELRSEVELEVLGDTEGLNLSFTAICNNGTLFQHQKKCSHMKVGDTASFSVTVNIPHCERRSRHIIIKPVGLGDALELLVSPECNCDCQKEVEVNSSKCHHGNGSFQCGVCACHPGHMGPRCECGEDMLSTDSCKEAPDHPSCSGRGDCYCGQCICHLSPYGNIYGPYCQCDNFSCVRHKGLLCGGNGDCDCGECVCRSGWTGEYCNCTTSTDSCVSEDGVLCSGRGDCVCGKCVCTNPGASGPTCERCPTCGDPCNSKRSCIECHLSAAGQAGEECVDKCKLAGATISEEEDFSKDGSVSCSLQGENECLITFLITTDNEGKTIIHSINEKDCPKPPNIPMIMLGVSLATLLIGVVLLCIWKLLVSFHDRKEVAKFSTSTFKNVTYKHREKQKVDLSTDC
Chain of β6 Δ746-764 deletion mutant expressed in SW480 cells (human) (P06756 31-1048, stated change not applied, chain 2 of 2): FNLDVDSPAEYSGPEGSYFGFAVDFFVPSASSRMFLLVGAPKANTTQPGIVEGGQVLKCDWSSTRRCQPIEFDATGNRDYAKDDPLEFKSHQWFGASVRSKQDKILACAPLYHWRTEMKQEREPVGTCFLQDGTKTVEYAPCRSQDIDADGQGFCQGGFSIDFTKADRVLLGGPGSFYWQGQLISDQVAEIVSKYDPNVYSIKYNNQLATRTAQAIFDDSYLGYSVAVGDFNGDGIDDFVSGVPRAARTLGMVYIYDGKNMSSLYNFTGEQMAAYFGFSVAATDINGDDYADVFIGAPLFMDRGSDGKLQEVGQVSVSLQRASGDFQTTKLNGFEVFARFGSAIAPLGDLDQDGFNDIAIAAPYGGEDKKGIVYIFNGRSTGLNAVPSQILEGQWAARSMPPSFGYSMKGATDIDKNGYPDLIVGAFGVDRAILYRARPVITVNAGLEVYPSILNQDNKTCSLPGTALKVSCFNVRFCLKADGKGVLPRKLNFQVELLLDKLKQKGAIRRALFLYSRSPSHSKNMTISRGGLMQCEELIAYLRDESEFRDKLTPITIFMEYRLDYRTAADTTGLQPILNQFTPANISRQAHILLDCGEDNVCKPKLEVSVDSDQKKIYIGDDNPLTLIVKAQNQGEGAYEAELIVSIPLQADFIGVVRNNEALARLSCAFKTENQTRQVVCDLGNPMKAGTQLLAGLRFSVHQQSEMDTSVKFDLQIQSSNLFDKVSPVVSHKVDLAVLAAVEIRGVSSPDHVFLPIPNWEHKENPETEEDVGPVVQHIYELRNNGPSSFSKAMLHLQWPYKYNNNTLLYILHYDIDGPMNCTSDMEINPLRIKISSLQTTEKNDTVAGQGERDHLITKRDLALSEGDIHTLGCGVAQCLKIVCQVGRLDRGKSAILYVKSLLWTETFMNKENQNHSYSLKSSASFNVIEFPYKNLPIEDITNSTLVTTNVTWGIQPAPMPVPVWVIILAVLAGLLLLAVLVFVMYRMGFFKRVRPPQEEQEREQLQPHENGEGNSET

**Q.** “ERK (endogenous ERK1/2, band at the position of ERK2, in lysates of human cell lines) (from UniProt P28482 2-360)” was tested. Which reduction of β6-bound ERK against the wild type receptor did it give?
**A.** > 75%

From patent publication US7422883
